# In paper PMC7875320:
# Biological target: human insulin (Homo sapiens, UniProt P01308;P01308 25-54;90-110)
# Experiment: graphene field-effect transistor
# Sequence of human insulin (P01308 25-54, chain 1 of 2): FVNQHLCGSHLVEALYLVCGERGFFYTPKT
# Sequence of human insulin (P01308 90-110, chain 2 of 2): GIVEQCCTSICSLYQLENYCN
binder,measurement,value
"GGTGGTGGGGGGGGTTGGTAGGGTGTCTTC (structured_DNA, 5'-NH2 (amine)) [IGA3]",Kd,35 nM
